Test [1] addresses Avi-Coh (E154C)-HIS labelled with maleimide-Cy3b, smFRET construct (R. champanellensis). Nature of the test: FRET or BRET; single-molecule FRET in solution on a confocal microscope; labelled Coh (Cy3b) and XMod-Doc (AF647) mixed 1:1 at 1 uM, 1 min, diluted to 200 pM; 50 mM Tris pH 8, 100 mM NaCl, 1 mM CaCl2, Trolox, 1% glucose. (In general: BRET reads energy transfer from a luciferase to a nearby fluorophore.)

In test [2] the target is Coh (lacking ELP linker and ddFLN4 domains), ITC construct (R. champanellensis). Nature of the test: ITC; 126 uM XMod-Doc injected (27 x 10 uL) into 16.1 uM Coh in the cell; 25 °C; TBS-Ca buffer (25 mM Tris, 72 mM NaCl, 1 mM CaCl2, pH 7.2). For orientation: Isothermal titration calorimetry measures the heat released or taken up as one component is titrated into another.
Test [3] concerns the target Coh-ddFLN4-ELP-HIS-ybbr, AFM construct (R. champanellensis). Nature of the test: AFM single-molecule force spectroscopy (AFM-SMFS); Coh construct covalently on the cantilever tip by its C-terminal ybbR tag, XMod-Doc construct covalently on the cover glass by its N-terminal ybbR tag; 200 ms dwell; constant pulling speed 100, 400, 1600, 6400 nm/s (mutants at 400 nm/s); TBS-Ca buffer; k0 from Bell-Evans or Dudko-Hummer-Szabo fits.

For test [4] the target is unchanged. Described as above. The source holds these as a separate data set.

As a reminder, the Kd is the equilibrium constant for the complex coming apart. A high value points to lower affinity. In general, stoichiometry N refers to the number of molecules, sites or subunits per partner or assembly.

Where two headings read alike, the source gives them in different places.

In the case of “ybbr-XMod-Doc (WT, S199AzF)-HIS labelled with DBCO-AF647, smFRET construct (domain or fragment)”, in test [1], the mean FRET efficiency, binding mode A is 0.71 and the mean FRET efficiency, binding mode B was found to be 0.34.

For “XMod-Doc protein (lacking ELP linker and ddFLN4 domains), ITC construct (domain or fragment)”, in test [2], the Kd was determined as 1 nM and the stoichiometry N is 1.

Take “ybbr-ELP-ddFLN4-XMod-Doc-HIS (wild type), AFM construct (domain or fragment)”: in test [3], the k0 (BE), pathway 1, high force rupture (XMod intact) turned out to be 4.7e-08 s⁻¹; the k0 (BE), pathway 2, low force rupture after XMod unfold amounted to 0.000743 s⁻¹; the k0 (BE), pathway 3, low force rupture (XMod intact) worked out at 2.79e-05 s⁻¹; the k0 (DHS, υ = 0.5), pathway 1, high force rupture (XMod intact) stood at 9.39e-05 s⁻¹. For the same substance, in test [3], the k0 (DHS, υ = 0.5), pathway 2, low force rupture after XMod unfold amounted to 0.0152 s⁻¹; the k0 (DHS, υ = 0.5), pathway 3, low force rupture (XMod intact) is 0.831 s⁻¹; the k0 (DHS, υ = 2/3), pathway 1, high force rupture (XMod intact) is 0.000157 s⁻¹; the k0 (DHS, υ = 2/3), pathway 2, low force rupture after XMod unfold is 0.101 s⁻¹. In test [3], this substance had a k0 (DHS, υ = 2/3), pathway 3, low force rupture (XMod intact) of 1.08 s⁻¹; a percentage of curves in pathway 3 (binding mode B), 400 nm/s of 19%; a percentage of curves in pathway 3 (binding mode B), all pulling speeds of 17 to 22%; a rupture force, pathway 1 (XMod intact) of 500 pN. Also, in test [3], the rupture force, pathway 2 (after XMod unfolding) was 200 pN and the rupture force, pathway 3 (XMod intact) was 200 pN. Moreover, in test [4], the rupture force, pathway 1 (XMod intact) is 500 to 600 pN.

(Values after PMC7456326.)
